According to patent US20210355194A1 (TWIST BIOSCIENCE, published 2021):

B1: variant 6-37 (Fc fusion)
VHH: EVQLVESGGGLVQPGGSLRLSCAASGHTFSTSWMGWFRQAPGKEREFVATINSLGGTNYADSVKGRFTISADNSKNTAYLQMNSLKPEDTAVYYCARVSSGDYGMDVWGQGTLVTVSS
B2: variant 6-46 (Fc fusion)
VHH: EVQLVESGGGLVQPGGSLRLSCAASGLTFSAMGWFRQAPGKEREFVALIRRDGSTIYADSVKGRFTISADNSKNTAYLQMNSLKPEDTAVYYCAALGILFGYDAFDIWGQGTLVTVSS
B3: variant 6-3 (Fc fusion)
VHH: EVQLVESGGGLVQPGGSLRLSCAASGFTFSPSWMGWFRQAPGKEREFVATINEYGGRNYADSVKGRFTISADNSKNTAYLQMNSLKPEDTAVYYCARVDRDFDYWGQGTLVTVSS
B4: variant 6-103 (Fc fusion)
VHH: EVQLVESGGGLVQPGGSLRLSCAASGRTSSPIAMGWFRQAPGKEREPVAVRWSDDYTYYADSVKGRFTISADNSKNTAYLQMNSLKPEDTAVYYCAKKLGGYYAFDIWGQGTLVTVSS
B5: variant 6-52 (Fc fusion)
VHH: EVQLVESGGGLVQPGGSLRLSCAASGDTYGSYWMGWFRQAPGKEREVVAAITSGGSTVYADSVKGRFTISADNSKNTAYLQMNSLKPEDTAVYYCARVDSRFDYWGQGTLVTVSS
B6: variant 6-81 (Fc fusion)
VHH: EVQLVESGGGLVQPGGSLRLSCAASGFIGNYHAMGWFRQAPGKEREFVAAVTWSGGTTNYADSVKGRFTISADNSKNTAYLQMNSLKPEDTAVYYCAREGYYYDSSGYPYYFDYWGQGTLVTVSS
B7: variant 6-9 (Fc fusion)
VHH: EVQLVESGGGLVQPGGSLRLSCAASGFTFDYYAMGWFRQAPGKEREFVSAIDSEGRTSYADSVKGRFTISADNSKNTAYLQMNSLKPEDTAVYYCARWGPFDIWGQGTLVTVSS
B8: variant 6-63 (Fc fusion)
VHH: EVQLVESGGGLVQPGGSLRLSCAASGQTFNMGWFRQAPGKEREFVAAIGSGGSTSYADSVKGRFTISADNSKNTAYLQMNSLKPEDTAVYYCWRLGNDYFDYWGQGTLVTVSS
notes: also called VHH nanobody 6-63
B9: variant 6-43 (Fc fusion)
VHH: EVQLVESGGGLVQPGGSLRLSCAASGRTFSSYAMMGWFRQAPGKEREFVASVNWDASQINYADSVKGRFTISADNSKNTAYLQMNSLKPEDTAVYYCTTLGAVYFDSSGYHDYFDYWGQGTLVTVSS
B10: variant 6-2 (Fc fusion)
VHH: EVQLVESGGGLVQPGGSLRLSCAASGFTMSSSWMGWFRQAPGKEREFVTVISGVGTSYADSVKGRFTISADNSKNTAYLQMNSLKPEDTAVYYCARGPDSSGYGFDYWGQGTLVTVSS
B11: variant 6-5 (Fc fusion)
VHH: EVQLVESGGGLVQPGGSLRLSCAASGRTFTMGWFRQAPGKEREFVASTNSAGSTNYADSVNGRFTISADNSKNTAYLQMNSLKPEDTAVYYCTTVDQYFDYWGQGTLVTVSS
B12: ACE2 variant antibody 3-12 (antibody, V domains shown)
VH: EVQLLESGGGLVQPGGSLRLSCAASGFTFRSHAMNWVRQAPGKGLEWVSAISGSGGSTNYADSVKGRFTISRDNSKNTLYLQMNSLRAEDTAVYYCARGLKFLEWLPSAFDIWGQGTLVTVSS
VL: DIQMTQSPSSLSASVGDRVTITCRTSQSINTYLNWYQQKPGKAPKLLIYGASNVQSGVPSRFSGSGSGTDFTLTISSLQPEDFATYYCQQSYRIPRTFGQGTKVEIK
B13: ACE2 variant antibody 3-13 (antibody, V domains shown)
VH: EVQLLESGGGLVQPGGSLRLSCAASGFTITNYAMSWVRQAPGKGLEWVSGISGSGAGTYYADSVKGRFTISRDNSKNTLYLQMNSLRAEDTAVYYCARHTWWKGAGFFDHWGQGTLVTVSS
VL: DIQMTQSPSSLSASVGDRVTITCRASQSIGRYLNWYQQKPGKAPKLLIYAASSLKSGVPSRFSGSGSGTDFTLTISSLQPEDFATYYCQQSYSLPRTFGQGTKVEIK
B14: 10-22 (VHH)
VHH: EVQLVESGGGLVQPGGSLRLSCAASGRTYYAMGWFRQAPGKEREFVGAIDWSGRRITYADSVKGRFTISADNSKNTAYLQMNSLKPEDTAVYYCARVRFSRLGGVIGRPIDSWGQGTLVTVSS
B15: 9-8 (VHH)
VHH: EVQLVESGGGLVQPGGSLRLSCAASGRTFRRYPMGWFRQAPGKEREFVAAISRSGGSTYYADSVKGRFTISADNSKNTAYLQMNSLKPEDTAVYYCAAKRLRSFASGGSYDWGQGTLVTVSS
B16: 10-57 (VHH)
VHH: EVQLVESGGGLVQPGGSLRLSCAASGRTFSRYAMGWFRQAPGKEREFVASITKFGSTNYADSVKGRFTISADNSKNTAYLQMNSLKPEDTAVYYCAKERESRFLKWRKTDWGQGTLVTVSS
B17: 10-26 (VHH)
VHH: EVQLVESGGGLVQPGGSLRLSCAASGRTFSGFTMSSTWMGWFRQAPGKEREFVAGIITNGSTNYADSVKGRFTISADNSKNTAYLQMNSLKPEDTAVYYCARRVAYSSFWSGLRKHMDVWGQGTLVTVSS
B18: 10-18 (VHH)
VHH: EVQLVESGGGLVQPGGSLRLSCAASGRMYNSYSMGWFRQAPGKEREFVARISPGGTFYADSVKGRFTISADNSKNTAYLQMNSLKPEDTAVYYCTTSARSGWFWRYFDSWGQGTLVTVSS
B19: 10-48 (VHH)
VHH: EVQLVESGGGLVQPGGSLRLSCAASGRTFRRYAMGWFRQAPGKEREFVAAINRSGSTEYADSVKGRFTISADNSKNTAYLQMNSLKPEDTAVYYCARQHQDFWTGYYTVWGQGTLVTVSS
B20: 10-50 (VHH)
VHH: EVQLVESGGGLVQPGGSLRLSCAASGRTLSTYNMGWFRQAPGKEREFVASISRFGRTNYADSVKGRFTISADNSKNTAYLQMNSLKPEDTAVYYCARRGKLSAAMHWFDPWGQGTLVTVSS
B21: 10-31 (VHH)
VHH: EVQLVESGGGLVQPGGSLRLSCAASGRTFGSYGMGWFRQAPGKEREFVATISIGGRTYYADSVKGRFTISADNSKNTAYLQMNSLKPEDTAVYYCARGSGSGFMWYHGNNNYDRWRYWGQGTLVTVSS
B22: 10-47 (VHH)
VHH: EVQLVESGGGLVQPGGSLRLSCAASGRPLRRYVMGWFRQAPGKEREFVAAITNGGSTKYADSVKGRFTISADNSKNTAYLQMNSLKPEDTAVYYCARGTPWRLLWFGTLGPPPAFDYWGQGTLVTVSS
B23: 10-41 (VHH)
VHH: EVQLVESGGGLVQPGGSLRLSCAASGRNLRMYRMGWFRQAPGKEREFVALISRVGVTSYADSVKGRFTISADNSKNTAYLQMNSLKPEDTAVYYCARGTSFFNFWSGSLGRVGFDSWGQGTLVTVSS
B24: 10-13 (VHH)
VHH: EVQLVESGGGLVQPGGSLRLSCAASGGLTFSSNTMGWFRQAPGKEREFVASISSSGRTSYADSVKGRFTISADNSKNTAYLQMNSLKPEDTAVYYCARRVRRLWFRSYFDLWGQGTLVTVSS
B25: 9-1 (VHH)
VHH: EVQLVESGGGLVQPGGSLRLSCAASGRTFSRLAMGWFRQAPGKEREFVAAISRSGRSTSYADSVKGRFTISADNSKNTAYLQMNSLKPEDTAVYYCAARRSQILFTSRTDYEWGQGTLVTVSS
B26: 10-40 (VHH)
VHH: EVQLVESGGGLVQPGGSLRLSCAASGRTFSTYTMGWFRQAPGKEREFVARIWRSGGNTYYADSVKGRFTISADNSKNTAYLQMNSLKPEDTAVYYCARGVRGVFRAYFDHWGQGTLVTVSS
B27: 10-28 (VHH)
VHH: EVQLVESGGGLVQPGGSLRLSCAASGSIFSIGMGWFRQAPGKEREFVARIWWRSGATYYADSVKGRFTISADNSKNTAYLQMNSLKPEDTAVYYCAAISIFGRLKWGQGTLVTVSS
B28: 10-52 (VHH)
VHH: EVQLVESGGGLVQPGGSLRLSCAASGRFFSICSMGWFRQAPGKEREFVAGINWRSGGSTYYADSVKGRFTISADNSKNTAYLQMNSLKPEDTAVYYCARGSGWWEYWGQGTLVTVSS
B29: 10-42 (VHH)
VHH: EVQLVESGGGLVQPGGSLRLSCAASGITIRTHAMGWFRQAPGKEREFVATISRSGGNTYYADSVKGRFTISADNSKNTAYLQMNSLKPEDTAVYYCTTAGVLRYFDWFRRPYWGQGTLVTVSS
B30: 10-45 (VHH)
VHH: EVQLVESGGGLVQPGGSLRLSCAASGRTFSWYPMGWFRQAPGKEREFVASISWGGARTYYADSVKGRFTISADNSKNTAYLQMNSLKPEDTAVYYCARSTGPRGSGRYRAHWFDSWGQGTLVTVSS
B31: 10-54 (VHH)
VHH: EVQLVESGGGLVQPGGSLRLSCAASGRTFSSARMGWFRQAPGKEREFVAGINMISSTKYADSVKGRFTISADNSKNTAYLQMNSLKPEDTAVYYCAHFRRFLPRGYVDYWGQGTLVTVSS

target: T1, Acro SARS-CoV-2 (COVID-19) S1 protein (SARS-CoV-2, UniProt P0DTC2 16-685); assay: SPR
T1 construct: also called SARS-CoV-2 S1

With B1 as the binder, how does the Kd read?
Its Kd is 22.5 nM.

With B2 as the binder, how does the Kd read?
The Kd was 18.1 nM.

How did the Kd turn out when B3 was run?
Its Kd is 12.4 nM.

How did the Kd turn out when B4 was run?
Its Kd is 23.6 nM.

B5 was tested. Which Kd did it give?
Its Kd is 31.2 nM.

For B6, which Kd is on record?
The Kd was 12.9 nM.

How did the Kd turn out when B7 was run?
Its Kd is 18.5 nM.

How did the Kd turn out when B8 was run?
The Kd was 21.8 nM.

With B9 as the binder, how does the Kd read?
The Kd was 17.9 nM.

How did the Kd turn out when B10 was run?
Its Kd is 29.9 nM.

For B11, which Kd is on record?
The Kd was 24.9 nM.

target: T2, ACE2 (human, UniProt Q9BYF1 18-740); assay: not given
T2 sequence (Q9BYF1 18-740 limits assumed): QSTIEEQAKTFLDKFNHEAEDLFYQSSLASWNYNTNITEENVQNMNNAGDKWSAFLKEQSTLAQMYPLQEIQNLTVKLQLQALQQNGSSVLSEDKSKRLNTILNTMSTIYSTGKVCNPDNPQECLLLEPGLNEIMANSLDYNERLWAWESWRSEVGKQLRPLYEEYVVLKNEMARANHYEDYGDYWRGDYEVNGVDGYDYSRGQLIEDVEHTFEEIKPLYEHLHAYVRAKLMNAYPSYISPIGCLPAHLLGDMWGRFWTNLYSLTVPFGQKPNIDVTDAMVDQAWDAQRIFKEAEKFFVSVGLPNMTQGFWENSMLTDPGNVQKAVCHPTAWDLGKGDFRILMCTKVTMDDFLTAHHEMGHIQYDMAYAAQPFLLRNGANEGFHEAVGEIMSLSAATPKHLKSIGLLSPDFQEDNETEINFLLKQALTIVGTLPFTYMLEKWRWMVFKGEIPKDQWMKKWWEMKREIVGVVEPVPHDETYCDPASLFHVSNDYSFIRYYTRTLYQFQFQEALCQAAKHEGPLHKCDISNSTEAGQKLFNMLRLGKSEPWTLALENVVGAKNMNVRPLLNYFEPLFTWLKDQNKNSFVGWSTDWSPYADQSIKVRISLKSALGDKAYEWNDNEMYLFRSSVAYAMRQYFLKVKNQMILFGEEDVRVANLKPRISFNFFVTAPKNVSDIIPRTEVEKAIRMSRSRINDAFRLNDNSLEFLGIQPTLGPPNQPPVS

How did the Kd turn out when B12 was run?
The Kd was 420 nM.

What about the koff of the same binder?
The koff was 0.00649 s⁻¹.

What about the kon of the same binder?
Its kon is 15500 M⁻¹ s⁻¹.

For B13, which Kd is on record?
The Kd was 126 nM.

And the koff?
The koff was 0.0102 s⁻¹.

And the kon?
The kon was 80900 M⁻¹ s⁻¹.

target: T2, ACE2; assay: not given; remark: another data set of the same source

Which results are given for B12?
koff: 0.00649 s⁻¹; kon: 15500 M⁻¹ s⁻¹

What does the source list for B13?
koff: 0.0102 s⁻¹; kon: 80900 M⁻¹ s⁻¹

target: SARS-CoV-2 membrane protein on expressing cells (SARS-CoV-2, UniProt P0DTC5 1-222); assay: not given

With B14 as the binder, how does the “MFI Ratio” value read?
The value was 4.47.

How did the “MFI Ratio” value turn out when B15 was run?
Its value is 3.76.

B16 was tested. Which “MFI Ratio” value did it give?
The value was 1.79.

For B17, which “MFI Ratio” value is on record?
The value was 5.2.

For B18, which “MFI Ratio” value is on record?
Its value is 8.06.

How did the “MFI Ratio” value turn out when B19 was run?
The value was 4.11.

B20 was tested. Which “MFI Ratio” value did it give?
Its value is 1.72.

How did the “MFI Ratio” value turn out when B21 was run?
The value was 1.66.

For B22, which “MFI Ratio” value is on record?
Its value is 1.62.

Which “MFI Ratio” value does the source give for B23 here?
Its value is 1.75.

With B24 as the binder, how does the “MFI Ratio” value read?
Its value is 8.83.

For B25, which “MFI Ratio” value is on record?
The value was 8.19.

B26 was tested. Which “MFI Ratio” value did it give?
The value was 3.78.

With B27 as the binder, how does the “MFI Ratio” value read?
The value was 2.06.

B28 was tested. Which “MFI Ratio” value did it give?
The value was 4.11.

For B29, which “MFI Ratio” value is on record?
The value was 1.74.

For B30, which “MFI Ratio” value is on record?
The value was 6.69.

Which “MFI Ratio” value does the source give for B31 here?
Its value is 1.78.
